Test results: IntAct's records for PubMed 24012959

B1: "Na(+)/H(+) exchange regulatory cofactor NHE-RF1" (Homo sapiens), O14745 (parent)
chain: MSADAAAGAPLPRLCCLEKGPNGYGFHLHGEKGKLGQYIRLVEPGSPAEKAGLLAGDRLVEVNGENVEKETHQQVVSRIRAALNAVRLLVVDPETDEQLQKLGVQVREELLRAQEAPGQAEPPAAAEVQGAGNENEPREADKSHPEQRELRPRLCTMKKGPSGYGFNLHSDKSKPGQFIRSVDPDSPAEASGLRAQDRIVEVNGVCMEGKQHGDVVSAIRAGGDETKLLVVDRETDEFFKKCRVIPSQEHLNGPLPVPFTNGEIQKENSREALAEAALESPRPALVRSASSDTSEELNSQDSPPKQDSTAPSSTSSSDPILDFNISLAMAKERAHQKRSSKRAPQMDWSKKNELFSNL

Variants of: B1
Details: with pgfrb_human PDGFRB

effect of a mutation on the interaction	Variant
increasing interaction	D301V
